The source of these data is PMC11286758, “The small CRL4^CSA ubiquitin ligase component DDA1 regulates transcription-coupled repair dynamics” (Nature Communications, 2024).

For the assay, the target named is T1, CSA-DDB1 (human, UniProt Q13216 1-396; Q16531 1-1140).
T1 construct: CSA, human, full-length coding gene; pAC8-CSA-Strep II clone; DDB1, human, full-length coding gene, synthesized and codon-optimized for insect cells; also called CSA/DDB1 complex; CSA-DDB1 alone; source: Sf9, co-expressed (biGBac), purified (Nickel-chelating sepharose, Resource Q, Superdex 200)
T1 sequence (Q13216 whole entry, chain 1 of 2): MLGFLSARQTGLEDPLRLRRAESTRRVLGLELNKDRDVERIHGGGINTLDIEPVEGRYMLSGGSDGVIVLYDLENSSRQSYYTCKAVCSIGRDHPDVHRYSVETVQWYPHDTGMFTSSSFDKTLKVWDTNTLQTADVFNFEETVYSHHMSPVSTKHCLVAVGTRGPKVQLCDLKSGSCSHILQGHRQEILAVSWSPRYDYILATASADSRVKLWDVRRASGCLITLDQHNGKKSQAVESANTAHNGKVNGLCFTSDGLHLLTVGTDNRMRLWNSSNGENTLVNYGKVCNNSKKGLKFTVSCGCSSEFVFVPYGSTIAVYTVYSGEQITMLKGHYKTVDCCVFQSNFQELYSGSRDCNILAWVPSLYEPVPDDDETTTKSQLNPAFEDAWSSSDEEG
T1 sequence (Q16531 whole entry, chain 2 of 2): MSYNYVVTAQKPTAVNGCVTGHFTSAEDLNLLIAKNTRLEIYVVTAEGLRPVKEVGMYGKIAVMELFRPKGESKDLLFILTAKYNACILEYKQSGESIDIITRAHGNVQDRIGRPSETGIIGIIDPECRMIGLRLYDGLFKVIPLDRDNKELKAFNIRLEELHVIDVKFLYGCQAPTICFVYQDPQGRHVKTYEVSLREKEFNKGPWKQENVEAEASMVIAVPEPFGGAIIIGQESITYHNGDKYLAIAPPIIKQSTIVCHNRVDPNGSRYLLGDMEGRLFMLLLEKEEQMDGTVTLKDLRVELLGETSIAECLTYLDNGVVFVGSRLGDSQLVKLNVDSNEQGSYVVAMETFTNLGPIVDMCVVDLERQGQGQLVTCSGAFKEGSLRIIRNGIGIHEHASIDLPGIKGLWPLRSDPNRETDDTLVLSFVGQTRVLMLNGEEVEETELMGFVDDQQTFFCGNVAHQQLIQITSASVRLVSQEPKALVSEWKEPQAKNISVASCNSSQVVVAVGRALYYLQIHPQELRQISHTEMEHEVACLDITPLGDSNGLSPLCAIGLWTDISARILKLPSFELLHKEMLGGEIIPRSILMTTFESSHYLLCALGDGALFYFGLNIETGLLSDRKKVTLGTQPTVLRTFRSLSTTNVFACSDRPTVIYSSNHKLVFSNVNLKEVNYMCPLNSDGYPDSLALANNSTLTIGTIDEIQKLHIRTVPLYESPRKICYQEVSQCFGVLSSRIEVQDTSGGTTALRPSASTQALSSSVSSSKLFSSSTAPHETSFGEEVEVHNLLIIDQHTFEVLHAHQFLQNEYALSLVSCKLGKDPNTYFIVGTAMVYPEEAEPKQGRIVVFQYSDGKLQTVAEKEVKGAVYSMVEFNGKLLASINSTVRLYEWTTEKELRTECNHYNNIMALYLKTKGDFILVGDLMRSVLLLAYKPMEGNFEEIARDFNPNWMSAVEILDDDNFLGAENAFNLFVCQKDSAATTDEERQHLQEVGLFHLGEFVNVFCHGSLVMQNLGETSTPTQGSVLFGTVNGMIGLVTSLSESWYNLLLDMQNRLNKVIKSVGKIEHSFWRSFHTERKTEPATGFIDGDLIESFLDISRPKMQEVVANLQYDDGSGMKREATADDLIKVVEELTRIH
The assay can be described thus: nano-differential scanning fluorimetry; complexes at 2 µM in 20 mM HEPES pH 7.5, 150 mM NaCl, 5% glycerol, 0.5 mM TCEP; Prometheus NT.48, 350/330 nm ratio, 1 °C/min from 20 to 90 °C; compared with CSA-DDB1 alone. The settings on record: both partners purified. Background: Differential scanning fluorimetry follows unfolding on heating by fluorescence.

B1: DDA1^1-52 (domain or fragment)
chain: not shown
notes: DDA1, human, residues 1-52; Used as the complex CSA-DDB1-DDA1^1-52; also called DDA1 C-terminal truncation; DDA1Δ
With B1, the binding result was “binds”.
